Laboratory results from patent US5972698 (Novartis Corporation, dated 1999).

Biological target: bovine trypsin (bovine, UniProt P00760)
Experiment: equilibrium dissociation constants (Ki) from enzyme inhibition

- binding result: binds
B1: recombinant leech-derived tryptase inhibitor form C, secreted by Saccharomyces cerevisiae (strain S-78 with pRM 9.1.4) (other)
chain: KKVCACPKILKPVCGSDGRTYANSCIARCNGVSIKSEGSCPTGILN
